{"source": "patent US20200299341A1", "about": "(SOCIETE DE COMMERCIALISATION DES PRODUITS DE LA RECHERCHE …, published 2020)", "target": "the molecule itself", "assay": "CD thermal denaturation at 222 nm, 16 uM, homodimer", "method": "16 μM of Mad1*DN, Mad1*DN-KR and/or Max* diluted in Phosphate buffer (50 mM) containing 50 mM KCl and 0.5 mM TCEP were subjected to temperature increase as the dichroic signal corresponding to α-Helical signal (222 nm) was recorded. Individual denaturation curves for each protein was recorded. To compare the heterodimeric complex formation, Mad1*DN or Mad1*DN-KR were mixed with Max* at equimolar concentration (16 μM each) in the same buffer adjusted at 1 mM TCEP. The experimental denaturation curves of the complexes (Mad1*DN/Max* or Mad1DN-KR/Max*) were compared to the summation of the individual curves of each homodimer which correspond to an absence of interaction between the two proteins in solution.", "data": [{"protein": "Mad1*DN-KR (Mad1 b-HLH-LZ domain with C75S, E77K, G81R, C111S, D112N) (other, Engineered variant of the human Mad1 b-HLH-LZ domain; It forms a homodimer alone and a heterodimer with Max*; also called KR analog of Mad1*DN) MSRSTHNEMEKNRRAHLRLSLKKLKRLVPLGPESSRHTTLSLLTKAKLHIKKLEDSNRKAVHQVDQLQREQRHLKRQLEKLGGSGC", "values": [{"measurement": "binding result", "result": "binds"}]}]}
